Columns and labels:
[1] = target: T1, His-rFbg (recombinant fibrinogen, gamma-chain K88H, K111H, K382H, K399H)
T1 chain 1: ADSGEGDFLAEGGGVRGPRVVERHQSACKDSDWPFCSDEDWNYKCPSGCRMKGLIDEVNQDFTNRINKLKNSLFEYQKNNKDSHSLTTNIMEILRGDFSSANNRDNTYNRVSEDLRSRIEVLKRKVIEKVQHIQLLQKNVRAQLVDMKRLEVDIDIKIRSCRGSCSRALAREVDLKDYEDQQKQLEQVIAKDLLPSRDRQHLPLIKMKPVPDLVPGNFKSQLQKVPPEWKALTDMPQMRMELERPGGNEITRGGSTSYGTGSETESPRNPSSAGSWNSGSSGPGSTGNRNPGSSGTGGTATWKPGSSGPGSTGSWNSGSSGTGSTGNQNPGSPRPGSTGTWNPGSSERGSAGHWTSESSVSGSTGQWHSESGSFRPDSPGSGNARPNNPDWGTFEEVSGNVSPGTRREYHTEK
T1 chain 2: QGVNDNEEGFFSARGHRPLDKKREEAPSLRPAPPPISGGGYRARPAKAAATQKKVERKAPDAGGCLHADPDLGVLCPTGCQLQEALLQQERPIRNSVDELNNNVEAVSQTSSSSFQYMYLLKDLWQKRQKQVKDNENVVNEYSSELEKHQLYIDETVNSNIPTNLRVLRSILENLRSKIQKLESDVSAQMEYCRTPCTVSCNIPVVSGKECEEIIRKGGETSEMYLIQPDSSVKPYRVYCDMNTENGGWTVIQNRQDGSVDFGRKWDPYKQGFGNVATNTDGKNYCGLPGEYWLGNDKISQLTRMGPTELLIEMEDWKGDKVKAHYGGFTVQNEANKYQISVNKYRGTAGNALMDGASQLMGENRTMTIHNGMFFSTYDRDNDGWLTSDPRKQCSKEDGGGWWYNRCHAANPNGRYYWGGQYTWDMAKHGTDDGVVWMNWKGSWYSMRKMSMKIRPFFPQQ
T1 chain 3: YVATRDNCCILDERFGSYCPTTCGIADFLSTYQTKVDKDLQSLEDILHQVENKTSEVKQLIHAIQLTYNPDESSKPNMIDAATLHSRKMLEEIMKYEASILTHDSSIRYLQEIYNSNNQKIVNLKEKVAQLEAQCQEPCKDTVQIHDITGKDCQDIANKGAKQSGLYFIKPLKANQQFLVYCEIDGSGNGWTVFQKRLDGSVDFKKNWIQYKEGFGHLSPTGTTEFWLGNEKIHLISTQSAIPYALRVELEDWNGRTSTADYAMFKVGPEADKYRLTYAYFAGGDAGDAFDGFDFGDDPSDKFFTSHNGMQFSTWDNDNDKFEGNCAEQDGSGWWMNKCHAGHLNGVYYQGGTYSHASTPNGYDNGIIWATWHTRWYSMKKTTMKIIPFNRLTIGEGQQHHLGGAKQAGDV

[2] = target: T2, fibrin gel (Sigma Aldrich fibrinogen, 20 mg/mL, gelled with thrombin, factor XIIIa and CaCl2), P02671
T2 chain 1: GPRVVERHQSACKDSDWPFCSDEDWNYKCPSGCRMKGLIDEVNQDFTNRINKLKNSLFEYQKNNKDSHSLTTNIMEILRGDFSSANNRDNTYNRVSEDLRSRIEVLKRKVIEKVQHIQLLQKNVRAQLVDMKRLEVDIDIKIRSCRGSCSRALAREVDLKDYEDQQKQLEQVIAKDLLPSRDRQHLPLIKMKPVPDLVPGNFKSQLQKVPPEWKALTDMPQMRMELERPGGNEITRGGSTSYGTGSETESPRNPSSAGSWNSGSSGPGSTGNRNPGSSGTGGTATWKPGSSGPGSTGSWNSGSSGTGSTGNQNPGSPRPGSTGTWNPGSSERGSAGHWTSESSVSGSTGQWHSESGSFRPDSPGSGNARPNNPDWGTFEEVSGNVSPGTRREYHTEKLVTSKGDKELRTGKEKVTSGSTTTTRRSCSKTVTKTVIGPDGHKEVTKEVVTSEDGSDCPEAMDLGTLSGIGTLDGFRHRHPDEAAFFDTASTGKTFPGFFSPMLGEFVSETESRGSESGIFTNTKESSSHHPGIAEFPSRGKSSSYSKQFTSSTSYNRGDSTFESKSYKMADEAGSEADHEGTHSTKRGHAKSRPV
T2 chain 2: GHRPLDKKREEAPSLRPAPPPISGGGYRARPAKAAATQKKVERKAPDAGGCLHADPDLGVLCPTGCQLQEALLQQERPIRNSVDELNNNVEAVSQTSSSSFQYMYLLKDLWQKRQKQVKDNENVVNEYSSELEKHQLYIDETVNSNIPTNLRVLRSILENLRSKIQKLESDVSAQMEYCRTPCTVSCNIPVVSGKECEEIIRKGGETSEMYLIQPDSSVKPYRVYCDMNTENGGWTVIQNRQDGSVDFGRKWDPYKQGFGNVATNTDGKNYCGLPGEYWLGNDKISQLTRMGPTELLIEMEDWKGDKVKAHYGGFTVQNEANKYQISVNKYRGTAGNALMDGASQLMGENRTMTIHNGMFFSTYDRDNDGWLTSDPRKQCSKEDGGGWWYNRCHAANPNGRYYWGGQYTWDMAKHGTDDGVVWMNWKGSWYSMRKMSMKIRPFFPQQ
T2 chain 3: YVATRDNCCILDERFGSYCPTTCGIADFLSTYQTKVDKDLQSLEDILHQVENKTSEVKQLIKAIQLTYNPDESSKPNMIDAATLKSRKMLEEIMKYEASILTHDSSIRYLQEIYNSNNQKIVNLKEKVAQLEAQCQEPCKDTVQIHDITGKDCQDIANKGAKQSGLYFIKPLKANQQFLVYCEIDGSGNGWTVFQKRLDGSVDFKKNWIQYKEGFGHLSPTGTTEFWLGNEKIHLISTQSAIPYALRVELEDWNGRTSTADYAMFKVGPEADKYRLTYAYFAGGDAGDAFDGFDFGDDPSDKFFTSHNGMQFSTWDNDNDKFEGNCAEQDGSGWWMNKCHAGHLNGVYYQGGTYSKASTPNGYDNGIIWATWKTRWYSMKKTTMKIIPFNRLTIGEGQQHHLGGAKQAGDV

[3] = target: T3, synthetic gamma-chain peptide ATW(K)TRW with K changed to serine
T3 chain: ATWSTRW

B1: human plasmin (Merck) (protein)
chain: KVYLSECKTGNGKNYRGTMSKTKNGITCQKWSSTSPHRPRFSPATHPSEGLEENYCRNPDNDPQGPWCYTTDPEKRYDYCDILECEEECMHCSGENYDGKISKTMSGLECQAWDSQSPHAHGYIPSKFPNKNLKKNYCRNPDRELRPWCFTTDPNKRWELCDIPRCTTPPPSSGPTYQCLKGTGENYRGNVAVTVSGHTCQHWSAQTPHTHNRTPENFPCKNLDENYCRNPDGKRAPWCHTTNSQVRWEYCKIPSCDSSPVSTEQLAPTAPPELTPVVQDCYHGDGQSYRGTSSTTTTGKKCQSWSSMTPHRHQKTPENYPNAGLTMNYCRNPDADKGPWCFTTDPSVRWEYCNLKKCSGTEASVVAPPPVVLLPDVETPSEEDCMFGNGKGYRGKRATTVTGTPCQDWAAQEPHRHSIFTPETNPRAGLEKNYCRNPDGDVGGPWCYTTNPRKLYDYCDVPQCAAPSFDCGKPQVEPKKCPGRVVGGCVAHPHSWPWQVSLRTRFGMHFCGGTLISPEWVLTAAHCLEKSPRPSSYKVILGAHQEVNLEPHVQEIEVSRLFLEPTRKDIALLKLSSPAVITDKVIPACLPSPNYVVADRTECFITGWGETQGTFGAGLLKEAQLPVIENKVCNRYEFLNGRVQSTELCAGHLAGGTDSCQGDSGGPLVCFEKDKYILQGVTSWGLGCARPNKPGVYVRVSRFVTWIEGVMRNN
**Q.** Which “plasmin cleavage analysis of target sites (peptide fragments detected by MS)” value [1] does the source give for B1 here?
**A.** Its value is “Position 382 shows a partial cleavage for the mutants (both cleaved and non-cleaved peptides detected)”.

**Q.** What about the “plasmin cleavage at the mutated gamma-chain sites 88, 111, 382, 399, high-resolution ESI-MS after 24 h digest in solution” value [1] of the same protein?
**A.** The value was “no cleavage was detected in either of the two mutants for all 4 mutations”.

**Q.** And the “time course of plasmin cleavage sites in the alpha-chain of fibrin gels, high-resolution ESI-MS (0.005 mU/ml plasmin, up to 2 h)” value [2]?
**A.** Its value is “cleavage begins in the αC region of fibrinogen with the most prominent cleavage at positions 602 (K|MADE) and 620 (K|RGHA). Next, cleavage sites further down the αC region are cleaved ... (e. g. positions 527 (K|TFPG), 510 (R|HRHP), 225 (K|MKPV) and 238 (K|SQLQ)). At the same time, cleavage in the α”.

**Q.** And the “time course of plasmin cleavage sites in the beta-chain of fibrin gels, high-resolution ESI-MS” value [2]?
**A.** Its value is “cleavage of the β-chain starts at the N-terminus highlighted by positions 52 (K|REEA) and 72 (R|ARPA) ... Subsequently, the α-helical part between fragment D and E is cleaved by plasmin (e. g. 152 (K|DLWQ) and 160 (K|QVKD))”.

**Q.** And the “time course of plasmin cleavage sites in the gamma-chain of fibrin gels, high-resolution ESI-MS” value [2]?
**A.** Its value is “only one additional cleavage site was found in this time-resolved assay for γ-chain ... With only 5 cleavage sites detected during the early stages of plasmin degradation”.

**Q.** And the “plasmin cleavage efficiency of synthetic peptide, HPLC” value [3]?
**A.** Its value is “Peptide sequences including S instead of K showed a significant reduction in cleavage efficiency compared to the original sequences”.

— patent publication US20260001937A1, “NOVEL RECOMBINANT FIBRINOGEN VARIANTS FOR FIBRIN SEALANTS FOR SURGICAL WOUND CARE” (Julius-Maximilians-Universität Würzburg, priority 2022, published 2026)
